Laboratory results published in patent US20090175858A1 (Merck KGaA, published 2009).

Columns and labels:
[1] = molecular target: T1, sEGFR T459A/S460A/K463A (UniProt P00533 25-645, limits assumed); test: SPR, equilibrium response, mutated sEGFR passed over immobilized Fab72000 [2A]
T1 construct: extracellular domain; Positions are in mature EGFR numbering; also called triple alanine mutant

[2] = molecular target: T2, sEGFR K454A/T459A/S460A (UniProt P00533 25-645, limits assumed); test: as above
T2 construct: extracellular domain; Positions are in mature EGFR numbering; also called triple alanine mutant

[3] = molecular target: T3, sEGFR (soluble extracellular region of EGFR), wild-type (UniProt P00533 25-645, limits assumed); test: SPR (Biacore 3000), equilibrium response, sEGFR over immobilized Fab72000
T3 construct: extracellular domain; also called EGFR soluble extracellular domain

[4] = molecular target: T4, sEGFRd3 (isolated domain III of sEGFR; amino acids 310-514 of mature EGFR) (UniProt P00533 334-538); test: SPR (Biacore 3000), equilibrium response, sEGFRd3 over immobilized Fab72000
T4 construct: range 310-514; The range 310-514 counts on mature EGFR, not on the precursor; also called soluble extracellular EGFR domain III

binding result [1]: no binding (tested: 2000 nM)
binding result [2]: no binding (tested: 2000 nM)
Kd [3]: 103 nM
Kd [4]: 50.1 nM
B1: Fab fragment of matuzumab (Fab72000) (Fab, V domains shown)
VH: QVQLVQSGAEVKKPGASVKVSCKASGYTFTSHWMHWVRQAPGQGLEWIGEFNPSNGRTNYNEKFKSKATMTVDTSTNTAYMELSSLRSEDTAVYYCASRDYDYDGRYFDYWGQGTLVTVSS
VL: DIQMTQSPSSLSASVGDRVTITCSASSSVTYMYWYQQKPGKAPKLLIYDTSNLASGVPSRFSGSGSGTDYTFTISSLQPEDIATYYCQQWSSHIFTFGQGTKVEIKR
notes: also called Fab fragment of EMD 72000
